# Data: patent US20210284747A1
# Assays:
# [1] = biological target: Human LIGHT stably expressed on EL4 cells (EL4-LIGHT) (human) (UniProt O43557); test: flow cytometry, EL4-LIGHT cells
# [2] = biological target: LIGHT without residues 81-84, stably expressed on EL4 cells (EL4-NC-LIGHT); test: cell-based or functional assay
# [3] = biological target: Wild type full length LIGHT on HEK293FF cells (alanine scanning control) (UniProt O43557); test: flow cytometry, HEK293FF, mAb at EC50
# Chain of Human LIGHT stably expressed on EL4 cells (EL4-LIGHT) (human) (O43557 whole entry, the tested form may be a part): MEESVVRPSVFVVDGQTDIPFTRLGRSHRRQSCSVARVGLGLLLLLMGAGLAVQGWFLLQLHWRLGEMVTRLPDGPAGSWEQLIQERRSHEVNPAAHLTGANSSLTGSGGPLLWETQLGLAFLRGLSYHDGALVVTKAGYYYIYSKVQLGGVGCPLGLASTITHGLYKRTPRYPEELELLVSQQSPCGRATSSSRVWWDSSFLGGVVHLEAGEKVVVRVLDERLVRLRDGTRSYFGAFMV
Binder,EC50 [1] [nM],"IC50, inhibition of IL-8 secretion, HT-29 + EL4-NC-LIGHT cells [2] [nM]",% of WT binding [3] [%]
"3B04_var13 (antibody, V domains shown) VH: QVQLVQSGAEVKKPGASVKVSCKASGYTFTDYEMHWVRQAPGQGLEWIGEIDPETGDTAYSQKFKGRATLTADKSTSTAYMEFSSLRSEDTAVYYCSRETDYFFDYWGQGTLVTVSS VL: DIQMTQSPSSLSASVGDRVTITCRASENIYGALNWYQQKPGKAPKLLIYGATNLAEGVPSRFSGSGSGRDYTLTISSLQPEDFATYYCQNVLTTPWTFGQGTKLEIKR",0.32,0.04,
"3D12_var13 (antibody, V domains shown) VH: QVQLVQSGAEVKKPGASVKVSCKASDYTFTDSEIHWVRQAPGQGLEWIGEIDPETGGTAYNQKFKGRATLTADKSTSTAYMELSSLRSEDTAVYYCSRETDYFFDYWGQGTLVTVSS VL: DIQMTQSPSSLSASVGDRVTITCRASENIYGALNWYQQKPGKAPKLLIYGATNLAEGVPSRFSGSGSGRDYTLTISSLQPEDVATYYCQNVLSTPWTFGQGTKLEIKR",0.24,0.45,
"3D12_var16 (antibody, V domains shown) VH: QVQLVQSGAEVKKPGASVKVSCKASGYTFTDSEMHWVRQAPGQGLEWMGEIDPETGGTAYAQKFQGRVTLTADKSTSTAYMELSSLRSEDTAVYYCSRETDYFFDYWGQGTLVTVSS VL: DIQMTQSPSSLSASVGDRVTITCRASENIYGALNWYQQKPGKAPKLLIYGATNLAEGVPSRFSGSGSGRDYTLTISSLQPEDVATYYCQNVLSTPWTFGQGTKLEIKR",0.26,0.52,
"3B04_var16 (antibody, V domains shown) VH: QVQLVQSGAEVKKPGASVKVSCKASGYTFTDYEMHWVRQAPGQGLEWMGEIDPETGDTAYAQKFQGRVTLTADKSTSTAYMELSSLRSEDTAVYYCSRETDYFFDYWGQGTLVTVSS VL: DIQMTQSPSSLSASVGDRVTITCRASENIYGALNWYQQKPGKAPKLLIYGATNLAEGVPSRFSGSGSGRDYTLTISSLQPEDFATYYCQNVLTTPWTFGQGTKLEIKR",0.24,0.1,
"3B04_var14 (antibody, V domains shown) VH: QVQLVQSGAEVKKPGASVKVSCKASGYTFTDYEMHWVRQAPGQGLEWIGEIDPETGDTAYSQKFQGRVTLTADKSTSTAYMEFSSLRSEDTAVYYCSRETDYFFDYWGQGTLVTVSS VL: DIQMTQSPSSLSASVGDRVTITCRASENIYGALNWYQQKPGKAPKLLIYGATNLAEGVPSRFSGSGSGRDYTLTISSLQPEDFATYYCQNVLTTPWTFGQGTKLEIKR",0.3,0.05,
"3D12_var14 (antibody, V domains shown) VH: QVQLVQSGAEVKKPGASVKVSCKASDYTFTDSEIHWVRQAPGQGLEWIGEIDPETGGTAYNQKFQGRVTLTADKSTSTAYMELSSLRSEDTAVYYCSRETDYFFDYWGQGTLVTVSS VL: DIQMTQSPSSLSASVGDRVTITCRASENIYGALNWYQQKPGKAPKLLIYGATNLAEGVPSRFSGSGSGRDYTLTISSLQPEDVATYYCQNVLSTPWTFGQGTKLEIKR",0.23,0.45,
"3D12_var15 (antibody, V domains shown) VH: QVQLVQSGAEVKKPGASVKVSCKASDYTFTDSEIHWVRQAPGQGLEWMGEIDPETGGTAYAQKFQGRVTLTADKSTSTAYMELSSLRSEDTAVYYCSRETDYFFDYWGQGTLVTVSS VL: DIQMTQSPSSLSASVGDRVTITCRASENIYGALNWYQQKPGKAPKLLIYGATNLAEGVPSRFSGSGSGRDYTLTISSLQPEDVATYYCQNVLSTPWTFGQGTKLEIKR",0.22,0.38,
"2E08 chimeric IgG4 mAb (antibody, V domains shown) VH: QVQMKESGAELVRPGVSVKISCKGSGYTFTDYAIHWVKQSHAKTLEWIGVISTYYGDASYNQKFKGKATMTVDKSSSTAYMELARLTSDDSAIYYCARSRGEYGNYDAMDYWGQGTSVTVSS VL: DIVLTQSPASLAVSLGQRATISCKASQSVDYDGDSYMNWYQQKPGQPPKLLIYAASNLESGIPARFSGSGSGTDFTLNIHPVEEEDAATYYCQQSNEDPLTFGAGTKLELK",,,100
"2B11 chimeric IgG4 mAb (antibody, V domains shown) VH: EVQLVESGAELVRPGVSVKISCKGSGYTFTDYAIHWVKQSHAKSLEWIGVISTYYGDASYNQKFKGKATMTVDKSSSTAYMELARLTSEDSAIYYCARSRGEYGNYDAMDYWGQGTSVTVSS VL: DIVLTQSPASLAVSLGQRATISCRASESVDSYGNSFMHWYQQKPGQPPKLLIYRASNLESGIPARFSGSGSRTDFTLTINPVEADDVATYYCQQSNEDPYTFGGGTKLEIK",,,100
"3B04 chimeric IgG4 mAb (antibody, V domains shown) VH: QVQLQQPGAELVRPGASVTLSCKASGYTFTDYEMHWVKQTPVHGLEWIGEIDPETGDTAYSQKFKGKATLTADKSSSTAYMEFRSLTSEDSAVYYCSRETDYFFDYWGQGTTLTVSS VL: DIQMTQTPASLSASVGETVTITCGASENIYGALNWYQRKQGKSPQLLIYGATNLADGMSSRFSGSGSGRQYSLKISSLHPDDFATYYCQNVLTTPWTFGGGTKLEIK",,,100
"3D12 chimeric IgG4 mAb (antibody, V domains shown) VH: QVQLQQPGAELVRPGASVTLSCKASDYTFTDSEIHWVKQTPVHGLEWIGEIDPETGGTAYNQKFKGKATLTADKSSSTAYMELRSLTSEDSAVYYCSRETDYFFDYWGQGTTLTVSS VL: DIQMTQSPASLSASVGETVTITCGASENIYGALNWYQRKQGKSPQLLIYGATNLADGMSSRFSGSGSGRQYSLKISSLHPDDVATYYCQNVLSTPWTFGGGTKLEIK",,,100
"3C10 chimeric IgG4 mAb (antibody, V domains shown) VH: EVQLQQSGAELVRPGASVTLSCKASDYTFTDSEIHWVKQTPVHGLEWIGEIDPETGGTAYNQKFKGKATLTADKSSSTAYMELRSLTSEDSAVYYCSRETDYFFDYWGQGTTLTVSS VL: DVVMTQTPAIMSASPGEKVTMTCSASSSVSYMYWYQQKPGSSPRLLIYDTSNLASGVPVRFSGSGSGTSYSLTISRMEAEDAATYYCQQWSSYPLTFGAGTKLELK",,,100
"3A07 chimeric IgG4 mAb (antibody, V domains shown) VH: QVQLQQSGAELVRPGAPVTLSCKASDYTFTDSEIHWVKQTPVHGLEWIGEIDPETGGTAYNQKFKGKATLTADKSSSTAYMELRSLTSEDSAVYYCSRETDYFFDYWGQGTTLTVSS VL: ENVLTQSPAIMSASPGEKVTMTCSASSSVSYMYWYQQRPGSSPRLLIYDTSNLASGVPVRFSGSGSGTSYSLTISRMEAEDAATYYCQQWSSYPLTFGSGTKLEIK",,,100
